Assay results published in article PMC3602595 (2013).

Molecular target: T1, HasR TonB box dodecamer peptide (Serratia marcescens)
T1 chain: ALDSLTVLGAGG
Experiment: ITC

B1: TonBCTD CTD (protein)
chain: not shown
Question: With B1 as the binder, how does the Kd read?
Answer: The Kd was ~50 µM.
